Reference: patent US20240148916A1, “BIVALENT FIBROBLAST ACTIVATION PROTEIN LIGANDS FOR TARGETED DELIVERY APPLICATIONS” (priority 2021, published 2024)
*1 amine or outer side, *2 acyl side, *3 side chain or, on linkers, in order; H or OH if unused. Where a SMILES comes first, the peptide text is derived from it. The star is where a group is joined. Fluorescein(5-Mal) = O=C1OC2(c3ccc(O)cc3Oc3cc(O)ccc32)c2ccc(N3C(=O)CC(*)C3=O)cc21; X1 = N#C[C@@H]1CC(F)(F)CN1C(=O)CNC(=O)c1ccnc2c(N*)cccc12; Suc = O=C(CCC(=O)[*:2])[*:1]

Legend:
in vivo = test: in vivo; set-up: species or system mice; details: mouse; for tissue to tissue ratio at 1 h / tissue to tissue ratio at 4 h / tissue to tissue ratio at 17 h / tissue to tissue ratio at 24 h: female, athymic BALB/C nu/nu, iv, 250 nmol/kg, total radioactivity
Method: Upon thawing, HT-1080.hFAP positive cells and HT-1080.wt cells were kept in culture in DMEM medium supplemented with fetal bovine serum (10%, FBS) and Antibiotic-Antimycotic (1%, AA) at 37° C. and 5% CO2. For passaging, cells were detached using Trypsin-EDTA 0.05% when reaching 90% confluence and re-seeded at a dilution of 1:4. Cells were grown to 80% confluence and detached with Trypsin-EDTA 0.05%. Cells were re-suspended in cold HBSS medium to a final concentration of 5×10^7 cells/mL. Aliquots of 5×10^6 cells (100 μL of suspension) were injected subcutaneously in the flank of female athymic BALB/C nu/nu mice (6-8 weeks of age). HT-1080.hFAP tumour cells were xenografted in the right flank and HT-1080.wt tumour cells were xenografted in the left flank as described above and allowed to grow to an average volume of 1.2±0.2 mL. […] Mice were sacrificed 1 h, 4 h, 17 h and 24 h after the injection by CO2 asphyxiation and organs extracted, weighted and radioactivity measured with a Packard Cobra γ-counter. Values are expressed as % ID/g±SD (Figure C). Food and water were given ad libitum during that period.

hFAP [1] = target: T1, hFAP (Homo sapiens, UniProt Q12884); test: Gel filtration co-elution experiment on hFAP; format: binding; details: PD-10 column, hFAP 2 μM
T1 sequence (Q12884 1-760): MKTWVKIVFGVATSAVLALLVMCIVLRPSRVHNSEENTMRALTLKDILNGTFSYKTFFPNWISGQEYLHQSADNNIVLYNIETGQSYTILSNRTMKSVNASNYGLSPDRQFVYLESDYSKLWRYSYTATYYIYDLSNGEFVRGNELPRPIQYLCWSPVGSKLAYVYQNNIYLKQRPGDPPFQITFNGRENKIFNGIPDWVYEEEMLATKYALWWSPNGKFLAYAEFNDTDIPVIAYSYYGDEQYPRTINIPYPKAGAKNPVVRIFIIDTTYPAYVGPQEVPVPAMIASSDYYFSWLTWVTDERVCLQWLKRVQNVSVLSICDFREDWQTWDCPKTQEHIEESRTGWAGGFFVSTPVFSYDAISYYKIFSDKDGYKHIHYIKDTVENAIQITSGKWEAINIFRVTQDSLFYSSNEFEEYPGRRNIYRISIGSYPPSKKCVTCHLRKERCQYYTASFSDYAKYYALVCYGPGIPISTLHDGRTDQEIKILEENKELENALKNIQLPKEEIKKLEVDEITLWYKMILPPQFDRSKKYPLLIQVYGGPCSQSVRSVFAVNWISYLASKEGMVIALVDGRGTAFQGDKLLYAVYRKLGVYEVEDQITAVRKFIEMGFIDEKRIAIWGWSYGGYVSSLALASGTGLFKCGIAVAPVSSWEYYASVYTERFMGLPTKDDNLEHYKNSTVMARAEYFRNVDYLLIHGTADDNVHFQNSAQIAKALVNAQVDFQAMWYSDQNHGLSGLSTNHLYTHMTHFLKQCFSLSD
Method: The final solution was loaded on the column and flushed with running buffer. Fractions of the flow-through (200 μL) were collected in test tubes and the radioactivity measured with a Packard Cobra γ-counter. […] The final solution was loaded on the column and flushed with running buffer. Fractions of the flow-through (200 μL) were collected in test tubes and the radioactivity measured with a Packard Cobra γ-counter.

hFAP [2] = target: T1, hFAP; test: ELISA against immobilized hFAP; format: binding; details: biotinylated hFAP immobilized on StreptaWell
Method: Recombinant human FAP (1 μM, 5 mL) was biotinylated with Biotin-LC-NHS (100 eq.) by incubation at room temperature under gentle agitation in 50 mM HEPES, 100 mM NaCl buffer (pH=7.4). After 2 hours biotinylated hFAP was purified via PD-10 column and dialyzed overnight in HEPES buffer. The following day a StreptaWell™ (transparent 96-well) was incubated with biotinylated hFAP (100 nM, 100 μL/well) for 1 hour at room temperature and washed with PBS (3×, 200 μL/well). The protein was blocked by adding 4% Milk in PBS (200 μL/well, 30 min at RT) and then washed with PBS (3×, 200 μL/well). Immobilized hFAP was incubated for 30 minutes in the dark with serial dilutions of ESV6-Asp-Lys-Asp-Cys-Fluorescein and Bi-ESV6-Asp-Lys-Asp-Cys-Fluorescein (17), then washed with PBS (3×, 200 μL/well). A solution of rabbit αFITC antibody (1 μg/mL, Bio-Rad 4510-7804) in 2% Milk-PBS was added to each well (100 μL/well) and incubated for additional 30 minutes in the dark. The resulting complex was washed with PBS (3×, 200 μL/well) and incubated for additional 30 minutes of protein A-HRP (1 μg/mL in 2% Milk-PBS, 100 μL/well). Each well was washed with PBS 0.1% Tween (3×, 200 μL/well) and with PBS (3×, 200 μL/well). The substrate (TMB—3,3′,5,5′-Tetramethylbenzidine) was added (100 μL/well) and developed in the dark for 2 minutes. […] The absorbance was measured at 450 nm (ref 620-650 nm) with a TECAN spark

[3] = Tumour-to-organ ratios: HT-1080.hFAP
[4] = Tumour-to-organ ratios: Intestine

SMILES: N#C[C@@H]1CC(F)(F)CN1C(=O)CNC(=O)c1ccnc2c(NC(=O)CCC(=O)NCCCC[C@H](NC(=O)CCC(=O)Nc3cccc4c(C(=O)NCC(=O)N5CC(F)(F)C[C@H]5C#N)ccnc34)C(=O)NCCNC(=O)CCC(C(=O)O)N3CCN(CC(=O)O)CCN(CC(=O)O)CCN(CC(=O)O)CC3)cccc12 (stereo partly shown) [^177Lu-Bi-ESV6-DOTAGA, metal not drawn]
- tissue to tissue ratio at 1 h (in vivo; Tumour-to-organ ratios: Blood): 32.8 ± 8.97
- tissue to tissue ratio at 4 h (in vivo; Tumour-to-organ ratios: Blood): 62.8 ± 11.2
- tissue to tissue ratio at 17 h (in vivo; Tumour-to-organ ratios: Blood): 95.4 ± 19.1
- tissue to tissue ratio at 24 h (in vivo; Tumour-to-organ ratios: Blood): 178 ± 57.6
- tissue to tissue ratio at 1 h (in vivo; [3]): 23 ± 8.09
- tissue to tissue ratio at 4 h (in vivo; [3]): 25 ± 1.27
- tissue to tissue ratio at 17 h (in vivo; [3]): 27.2 ± 11.3
- tissue to tissue ratio at 24 h (in vivo; [3]): 29.7 ± 13.8
- tissue to tissue ratio at 1 h (in vivo; Tumour-to-organ ratios: Heart): 52.2 ± 10.8
- tissue to tissue ratio at 4 h (in vivo; Tumour-to-organ ratios: Heart): 125 ± 17.1
- tissue to tissue ratio at 17 h (in vivo; Tumour-to-organ ratios: Heart): 148 ± 12.9
- tissue to tissue ratio at 24 h (in vivo; Tumour-to-organ ratios: Heart): 201 ± 59.5
- tissue to tissue ratio at 1 h (in vivo; [4]): 59.6 ± 6.48
- tissue to tissue ratio at 4 h (in vivo; [4]): 82.4 ± 31.2
- tissue to tissue ratio at 17 h (in vivo; [4]): 111 ± 32.1
- tissue to tissue ratio at 24 h (in vivo; [4]): 104 ± 60.6
- tissue to tissue ratio at 1 h (in vivo; Tumour-to-organ ratios: Kidney): 7.19 ± 2.29
- tissue to tissue ratio at 4 h (in vivo; Tumour-to-organ ratios: Kidney): 8.61 ± 0.84
- tissue to tissue ratio at 17 h (in vivo; Tumour-to-organ ratios: Kidney): 8.4 ± 1.31
- tissue to tissue ratio at 24 h (in vivo; Tumour-to-organ ratios: Kidney): 9.9 ± 2.38
- tissue to tissue ratio at 1 h (in vivo; Tumour-to-organ ratios: Liver): 18.8 ± 5.31
- tissue to tissue ratio at 4 h (in vivo; Tumour-to-organ ratios: Liver): 29.9 ± 4.12
- tissue to tissue ratio at 17 h (in vivo; Tumour-to-organ ratios: Liver): 27.9 ± 2.25
- tissue to tissue ratio at 24 h (in vivo; Tumour-to-organ ratios: Liver): 30.6 ± 8
- tissue to tissue ratio at 1 h (in vivo; Tumour-to-organ ratios: Lung): 19.5 ± 4.09
- tissue to tissue ratio at 4 h (in vivo; Tumour-to-organ ratios: Lung): 65.5 ± 10.5
- tissue to tissue ratio at 17 h (in vivo; Tumour-to-organ ratios: Lung): 124 ± 74.7
- tissue to tissue ratio at 24 h (in vivo; Tumour-to-organ ratios: Lung): 98.7 ± 18.9
- tissue to tissue ratio at 1 h (in vivo; Tumour-to-organ ratios: Spleen): 42.1 ± 17.7
- tissue to tissue ratio at 4 h (in vivo; Tumour-to-organ ratios: Spleen): 73.8 ± 10.3
- tissue to tissue ratio at 17 h (in vivo; Tumour-to-organ ratios: Spleen): 68.2 ± 11.7
- tissue to tissue ratio at 24 h (in vivo; Tumour-to-organ ratios: Spleen): 93.6 ± 64.5
- tissue to tissue ratio at 1 h (in vivo; Tumour-to-organ ratios: Tail): 10.4 ± 1.72
- tissue to tissue ratio at 4 h (in vivo; Tumour-to-organ ratios: Tail): 9.68 ± 4.14
- tissue to tissue ratio at 17 h (in vivo; Tumour-to-organ ratios: Tail): 14 ± 8.08
- tissue to tissue ratio at 24 h (in vivo; Tumour-to-organ ratios: Tail): 15.5 ± 7.98
- Kidney uptake (in vivo): transient and becomes negligible 24 hours after injection
- Complex formation with hFAP (co-elution) (hFAP [1]): form a stable complex

SMILES: N#C[C@@H]1CC(F)(F)CN1C(=O)CNC(=O)c1ccnc2c(NC(=O)CCC(=O)NCCNC(=O)CCC(C(=O)O)N3CCN(CC(=O)O)CCN(CC(=O)O)CCN(CC(=O)O)CC3)cccc12 (single isomer, unassigned) [^177Lu-ESV6-DOTAGA, metal not drawn]
- tissue to tissue ratio at 1 h (in vivo; Tumour-to-organ ratios: Blood): 43.1 ± 17.2
- tissue to tissue ratio at 4 h (in vivo; Tumour-to-organ ratios: Blood): 113 ± 49.8
- tissue to tissue ratio at 17 h (in vivo; Tumour-to-organ ratios: Blood): 236 ± 190
- tissue to tissue ratio at 24 h (in vivo; Tumour-to-organ ratios: Blood): 855 ± 368
- tissue to tissue ratio at 1 h (in vivo; [3]): 34.9 ± 2.79
- tissue to tissue ratio at 4 h (in vivo; [3]): 26.8 ± 6.42
- tissue to tissue ratio at 17 h (in vivo; [3]): 32.6 ± 17.4
- tissue to tissue ratio at 24 h (in vivo; [3]): 13.3 ± 5.95
- tissue to tissue ratio at 1 h (in vivo; Tumour-to-organ ratios: Heart): 135 ± 19.8
- tissue to tissue ratio at 4 h (in vivo; Tumour-to-organ ratios: Heart): 208 ± 113
- tissue to tissue ratio at 17 h (in vivo; Tumour-to-organ ratios: Heart): 354 ± 231
- tissue to tissue ratio at 24 h (in vivo; Tumour-to-organ ratios: Heart): 169 ± 172
- tissue to tissue ratio at 1 h (in vivo; [4]): 41 ± 41.8
- tissue to tissue ratio at 4 h (in vivo; [4]): 39.8 ± 11.4
- tissue to tissue ratio at 17 h (in vivo; [4]): 163 ± 94.9
- tissue to tissue ratio at 24 h (in vivo; [4]): 77 ± 58.6
- tissue to tissue ratio at 1 h (in vivo; Tumour-to-organ ratios: Kidney): 9.16 ± 0.88
- tissue to tissue ratio at 4 h (in vivo; Tumour-to-organ ratios: Kidney): 8.25 ± 1.45
- tissue to tissue ratio at 17 h (in vivo; Tumour-to-organ ratios: Kidney): 5.72 ± 2.04
- tissue to tissue ratio at 24 h (in vivo; Tumour-to-organ ratios: Kidney): 11.9 ± 16
- tissue to tissue ratio at 1 h (in vivo; Tumour-to-organ ratios: Liver): 5.89 ± 0.82
- tissue to tissue ratio at 4 h (in vivo; Tumour-to-organ ratios: Liver): 21.6 ± 2.99
- tissue to tissue ratio at 17 h (in vivo; Tumour-to-organ ratios: Liver): 40.3 ± 13.3
- tissue to tissue ratio at 24 h (in vivo; Tumour-to-organ ratios: Liver): 30.4 ± 6.7
- tissue to tissue ratio at 1 h (in vivo; Tumour-to-organ ratios: Lung): 37.9 ± 2.59
- tissue to tissue ratio at 4 h (in vivo; Tumour-to-organ ratios: Lung): 90.3 ± 29.3
- tissue to tissue ratio at 17 h (in vivo; Tumour-to-organ ratios: Lung): 150 ± 88.5
- tissue to tissue ratio at 24 h (in vivo; Tumour-to-organ ratios: Lung): 140 ± 83
- tissue to tissue ratio at 1 h (in vivo; Tumour-to-organ ratios: Spleen): 109 ± 8.98
- tissue to tissue ratio at 4 h (in vivo; Tumour-to-organ ratios: Spleen): 169 ± 67.8
- tissue to tissue ratio at 17 h (in vivo; Tumour-to-organ ratios: Spleen): 200 ± 45.7
- tissue to tissue ratio at 24 h (in vivo; Tumour-to-organ ratios: Spleen): 103 ± 66.7
- tissue to tissue ratio at 1 h (in vivo; Tumour-to-organ ratios: Tail): 31.2 ± 8.39
- tissue to tissue ratio at 4 h (in vivo; Tumour-to-organ ratios: Tail): 10.4 ± 7.6
- tissue to tissue ratio at 17 h (in vivo; Tumour-to-organ ratios: Tail): 4.74 ± 5.11
- tissue to tissue ratio at 24 h (in vivo; Tumour-to-organ ratios: Tail): 8.77 ± 2.3
- Complex formation with hFAP (co-elution) (hFAP [1]): form a stable complex

SMILES: N#C[C@@H]1CC(F)(F)CN1C(=O)CNC(=O)c1ccnc2c(NC(=O)CCC(=O)N[C@@H](CC(=O)O)C(=O)N[C@@H](CCCCN)C(=O)N[C@@H](CC(=O)O)C(=O)N[C@@H](CSC3CC(=O)N(c4ccc5c(c4)C(=O)OC54c5ccc(O)cc5Oc5cc(O)ccc54)C3=O)C(=O)O)cccc12 (stereo partly drawn) [ESV6-Asp-Lys-Asp-Cys-Fluorescein] ({X1-Suc}-DKDC(Fluorescein(5-Mal))-OH)
- Kd (hFAP [2]): 0.0323 µM
